The results in this text go back to publication PMC6548133 (The Journal of Cell Biology, 2019).

First the molecules themselves.
B1: human Rap1 isoform Rap1b (residues 1–167) (natural protein)
chain: MREYKLVVLGSGGVGKSALTVQFVQGIFVEKYDPTIEDSYRKQVEVDAQQCMLEILDTAGTEQFTAMRDLYMKNGQGFALVYSITAQSTFNDLQDLREQILRVKDTDDVPMILVGNKCDLEDERVVGKEQGQNLARQWNNCAFLESSAKSKINVNEIFYDLVRQINR
B2: talin1 F1(ΔL), residues 84–196 Δ141–170 (F1 Δloop) (domain or fragment)
chain: KQRPLKIRMLDGTVKTIMVDDSKTVTDMLMTICARIGITNHDEYSLVRELMEEKKDELNWLDHGRTLREQGVEEHETLLLRRK

The target in assay [1] is murine talin1 head domain, residues 1–400 (THD) (murine, UniProt P26039 1-400). The experiment in a line: NMR titration.
Assay [2] addresses B1. Put plainly: NMR titration.

Chain of murine talin1 head domain, residues 1–400 (THD) (P26039 1-400): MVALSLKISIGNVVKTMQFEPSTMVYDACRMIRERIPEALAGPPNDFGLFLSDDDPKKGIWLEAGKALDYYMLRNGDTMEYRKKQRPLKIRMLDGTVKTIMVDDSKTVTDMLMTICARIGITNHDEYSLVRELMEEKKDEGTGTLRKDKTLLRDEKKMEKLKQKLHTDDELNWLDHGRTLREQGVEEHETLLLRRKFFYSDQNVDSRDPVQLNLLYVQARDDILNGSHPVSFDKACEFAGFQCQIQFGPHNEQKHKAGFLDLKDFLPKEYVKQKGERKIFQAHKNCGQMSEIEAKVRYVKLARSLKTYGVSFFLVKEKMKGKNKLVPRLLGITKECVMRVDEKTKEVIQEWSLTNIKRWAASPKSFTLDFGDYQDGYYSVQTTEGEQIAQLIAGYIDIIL

For B1, the binding result in assay [1] was “binds”.

For B2, the binding result in assay [2] is reported as “binds”.
